In US11708423B2, “Chimeric engulfment receptor molecules and methods of use” (CERO THERAPEUTICS, INC., priority 2017, dated 2023):

How the values were obtained:
Format in all cases: cell-based
[1] = system: HCC159 lung adenocarcinoma cells; assay: LDH-based cytotoxicity, HCC159 cells; conditions: Osimeritinib 0, 1, 5 nM; E:T 2:1 or 5:1; 18 hours
Procedure: HCC159 lung adenocarcinoma cells were co-cultured with CER123- or CER126-expressing CD4+ T cells with increasing concentrations of Osimeritnib (0, 1 nM, 5 nM). After 18 hours of co-culture, bulk supernatants were evaluated using a LDH-based cytotoxicity assay. T cells assays were performed using purified, EGFR^+ (transduction marker), CER modified T cells 7 days after activation using CD3 & CD28 microbeads at effector:target cell ratios of 2:1 or 5:1. Control “Mock” T cells were transduced with vector alone. […] Bulk supernatants were also analyzed after 18 hours of co-culture for Interferon Gamma (IFNγ) secretion (FIG. 50). Control “Mock” T cells were transduced with vector alone.

[2] = system: H1975 lung adenocarcinoma cells; assay: LDH assay, H1975 cells, 48 hours co-culture with 1 μM Osimeritinib; conditions: E:T 1:1, 48 hours, CD4+ T cells
Outline: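 H1975 EGFR-mutant cells were co-cultured 48 h with CER-expressing or mock-transduced CD4+ T cells at 1:1 effector:target, plus 1 μM osimertinib. After T cells were washed away, viable H1975 cells were quantified by colorimetric LDH assay in triplicate, expressed as % of control.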

ALK+A549 cells = assay: Phagocytosis of ALK inhibitor treated A549 ALK+ cells by CER T cells (fluorescent microscopy); conditions: 2.5 μM Alectinib, 12 hours
Source text: An ELM4-ALK translocation was introduced into A549 cells. […] CD4 T cells are modified to express CER104 or CER117 and labeled with CELLTRACE Violet. CER117 has a polypeptide sequence set forth in SEQ ID NO:144 and comprises a Tim4 binding domain, a Tim4 transmembrane domain, and an engulfment signaling domain comprising a primary engulfment signaling domain comprising a TLR8 signaling domain and a secondary engulfment signaling domain comprising a TRAF6 signaling domain. The ALK+A549 cells were then co-cultured with CER104- or CER117-expressing CD4+ T cells or Mock-transduced (vector only) T cells for 12 hours and images were obtained by fluorescent microscopy at 40× magnification (FIGS. 62A-E). White arrows indicate exemplary phagocytic events (pH rodo red cell targets within CELLTRACE Violet labeled CD4+ T cells).
CER123- and CER126-transduced CD4+ and CD8+ T cells were labeled with CELLTRACE Violet and co-cultured with the A549 ALK-positive cells. Co-cultured cells were imaged by fluorescent microscopy at 63× magnification after 12 hours (FIGS. 63A-F). White arrows indicate exemplary phagocytic events (pHrodo red targets within CELLTRACE Violet-labeled CD4 T cells).
Phagocytosis of Alectinib-treated ALK+A549 cells by CER-expressing T cells was also quantified. […] Bar graph in FIG. 64A represents quantification of percentage phagocytosis calculated as ((number of phagocytic target events)/(total number of effector cells))*100. Events were calculated from fluorescent 3×3 stitched images at 40×resolution after 12 hours of co-culture. Bar graph in FIG. 64B represents quantification of adjusted phagocytic index calculated as (median area ratio of target events in effector cells*phagocytosis). Events calculated from fluorescent 3×3 stitched images at 40×resolution after 12 hours of co-culture.
CER21−, CER27−, CER30−, CER108−, CER110−, CER112−, CER120−, CER123−, CER124−, CER126−, CER127−, or CER104-transduced CD4+ T cells were co-cultured with Alectinib-treated A549 cells at a 1:1 ratio for 12 hours. Phagocytic events were calculated from 3×3 stitched fluorescent microscopy images at 40X resolution. […] Images were obtained after 12 hours of co-culture. Yellow triangles indicate exemplary phagocytic events (pHrodo red targets within CELLTRACE violet labeled CD4+ T cells).
A time course study of phagocytic uptake of tumor cells by CER-transduced T cells was performed. CD4+ T cells were transduced with a lentiviral vector comprising CER122 nucleic acid. Mock-transduced (vector only) CD4+ T cells were used as control. CER122-transduced T cells were labeled with CELLTRACE violet and co-cultured with pHrodo red labeled A549 ALK+ lung adenocarcinoma cells. Fluorescent microscopy images were obtained at 4, 8, and 16 hours co-culture (FIG. 72C), and % phagocytosis (FIG. 72A) and phagocytic index (FIG. 72B) were calculated.

B1: CER123: Tim4 binding and transmembrane domains, TLR2 primary and TRAF6 secondary signaling domains; SEQ ID NO:150 (protein)
chain: MSKGLLLLWLVTELWWLYLTPAASEDTIIGFLGQPVTLPCHYLSWSQSRNSMCWGKGSCPNSKCNAELLRTDGTRIISRKSTKYTLLGKVQFGEVSLTISNTNRGDSGVYCCRIEVPGWFNDVKKNVRLELRRATTTKKPTTTTRPTTTPYVTTTTPELLPTTVMTTSVLPTTTPPQTLATTAFSTAVTTCPSTTPGSFSQETTKGSAFTTESETLPASNHSQRSMMTISTDIAVLRPTGSNPGILPSTSQLTTQKTTLTTSESLQKTTKSHQINSRQTILIIACCVGFVLMVLLFLAFLHRFHGLWYMKMMWAWLQAKRKPRKAPSRNICYDAFVSYSERDAYWVENLMVQELENFNPPFKLCLHKRDFIPGKWIIDNIIDSIEKSHKTVFVLSENFVKSEWCKYELDFSHFRLFDENNDAAILILLEPIEKKAIPQRFCKLRKIMNTKTYLEWPMDEAQREGFWVNLRAAIKSMSLLNCENSCGSSQSESDCCVAMASSCSAVTKDDSVGGTASTGNLSSSFMEEIQGYDVEFDPPLESKYECPICLMALREAVQTPCGHRFCKACIIKSIRDAGHKCPVDNEILLENQLFPDNFAKREILSLMVKCPNEGCLHKMELRHLEDHQAHCEFALMDCPQCQRPFQKFHINIHILKDCPRRQVSCDNCAASMAFEDKEIHDQNCPLANVICEYCNTILIREQMPNHYDLDCPTAPIPCTFSTFGCHEKMQRNHLARHLQENTQSHMRMLA
modifications: CER123 protein
cell killing of HCC159 cells (LDH) [1]: inducible cell killing responses
killing of H1975 cells (LDH) [2]: synergistic killing of H1975 lung adenocarcinoma cells upon EGFR inhibition
phagocytic elimination of ALK+A549 cells (ALK+A549 cells): phagocytic elimination of ALK+A549 cells
